Entries after “also recorded” stand apart in the source; their conditions may differ.
Tests used:
[1] = biological target: human UNG2 enzyme (Homo sapiens, UniProt P13051); settings: cited from earlier work
[2] = biological target: T1, UDG of B. subtilis (Bacillus subtilis, UniProt P39615); assay: Affinity chromatography on anti-FLAG M2 column, co-elution with p56FLAG; type: binding; settings: extract of B. subtilis 110NA[pPR53.p56FLAG]; elution with FLAG peptide; peptide mass fingerprinting
T1 construct: endogenous in cells; host or cells: B. subtilis 110NA [pPR53.p56FLAG] lysate; UDG is the cell's own protein; only p56FLAG is plasmid-encoded
T1 sequence (P39615 whole entry, looked up): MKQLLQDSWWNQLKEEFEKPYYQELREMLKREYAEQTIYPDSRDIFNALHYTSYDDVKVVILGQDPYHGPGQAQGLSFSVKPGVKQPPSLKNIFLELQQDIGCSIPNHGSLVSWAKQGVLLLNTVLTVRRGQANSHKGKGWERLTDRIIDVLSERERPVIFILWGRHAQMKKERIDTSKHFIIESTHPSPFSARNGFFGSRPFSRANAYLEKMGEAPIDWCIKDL
Method: In order to analyse whether the UDG enzyme is a cellular target of protein p56, affinity chromatography assays were performed. Briefly, the B. subtilis 110NA [pPR53.p56FLAG] strain was grown in LB medium with phleomycin (0.8 μg/ml) at 30° C. to an OD560 equivalent to 10^8 viable cells per ml. The culture was concentrated 10-fold in TBS buffer (50 mM Tris-HCl, pH 7.5, 150 mM NaCl) and was lysed using the French press (20,000 psi). The lysate was centrifuged at 7,000 rpm and 4° C. in the Sorvall-SS.34 rotor for 10 minutes. The supernatant was loaded in an anti-FLAG M2 column (Sigma). The proteins bound to the column were eluted with the TBS buffer containing the FLAG peptide (500 μg/ml) (Sigma). The eluted proteins were precipitated with acetone, re-suspended in the loading buffer (60 mM Tris-HCl, pH 6.8, 2% SDS, 5% β-mercaptoethanol, 30% glycerol) and separated by electrophoresis in polyacrylamide/Tricine/SDS gels (Schagger and von Jagow (1987) Anal. Biochem. 166: 368-379). The gel was stained with SyproRuby (Molecular Probes). As a negative control, an extract from the 110NA[pPR53] strain was used. In a second experiment, protein p56 (2 μg) was incubated with the UDG enzyme of E. coli (0.2 μg, New England Biolabs). After 15 minutes at ambient temperature, the reaction was analysed by electrophoresis in native polyacrylamide gels (16%). The gel was stained with SpyroRuby.

Sequence of human UNG2 enzyme (P13051 whole entry): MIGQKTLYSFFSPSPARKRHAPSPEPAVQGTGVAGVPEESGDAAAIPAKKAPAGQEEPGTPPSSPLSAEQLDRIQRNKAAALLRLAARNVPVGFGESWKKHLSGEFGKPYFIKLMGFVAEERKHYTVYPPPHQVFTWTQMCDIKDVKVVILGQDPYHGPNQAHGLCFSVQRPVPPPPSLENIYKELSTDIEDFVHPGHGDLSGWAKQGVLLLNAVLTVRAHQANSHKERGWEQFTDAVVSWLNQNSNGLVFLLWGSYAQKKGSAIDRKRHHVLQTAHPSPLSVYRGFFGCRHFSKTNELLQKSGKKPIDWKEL

B1: UGI: UGI protein encoded by the PBS2 bacteriophage, known inhibitor of UDG (protein, UniProt P14739 1-84, looked up)
Uracil-DNA glycosylase …: MTNLSDIIEKETGKQLVIQESILMLPEEVEEVIGNKPESDILVHTAYDESTDENVMLLTSDAPEYKPWALVIQDSNGENKIKML
For B1, which “blocking of UDG activity of human UNG2” value [1] is on record?
Its value is “blocks the UDG activity of the human UNG2 enzyme”.

B2: p56FLAG: p56 protein that contains amino acid sequence DYKDDDDK (FLAG peptide) fused to the C-terminal end (protein)
chain: MVQNDFVDSYDVTMLLQDDDGKQYYEYHKGLSLSDFEVLYGNTADEIIKLRLDKVLDYKDDDDK
With B2 as the molecule, how does the “interaction / co-elution with UDG enzyme” value [2] read?
Its value is “protein D was identified to be the UDG enzyme; also recorded: interacts with the UDG enzyme”.

— US8129336B1, “Inhibitor of the uracil-DNA glycosylase enzyme and uses thereof” (Consejo Superior de Investigaciones Cientificas, priority 2005, dated 2012)
